Assay [1] addresses T1, mouse IgG2a Fc-tagged human PVRIG (h-PVRIG-mIgG2a Fc) recombinant protein (human, UniProt Q6DKI7 41-171, limits assumed).
T1 construct: bought from Acrobiosystems; not shown: mouse IgG2a Fc tag
T1 sequence (looked up): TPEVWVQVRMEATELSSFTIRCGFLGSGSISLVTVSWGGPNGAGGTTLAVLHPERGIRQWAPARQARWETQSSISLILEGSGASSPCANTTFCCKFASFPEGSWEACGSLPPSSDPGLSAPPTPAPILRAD
Kind of assay: competition ELISA; human PVRIG coated, competitor human PVRL2. As to the method:
(§1) The h-PVRIG-mIgG2a Fc protein (at a concentration of 1 μg/mL) was coated on the 96-well microplate at 100 μL per well, and incubated overnight at 4° C. The plate was washed three times with wash buffer at 250 μL per well. For each wash, the plate was shaken for 10 s to ensure adequate cleaning. A blocking solution was added at 300 μL/well, and the plate was incubated at room temperature for 1 h. The plate was washed three times with wash buffer at 250 μL per well. For each wash, the plate was shaken for 10 s to ensure adequate cleaning. 50 μL of diluted test anti-PVRIG antibody and 50 μL of his-tagged ligand PVRL2 were added to each well, and the plate was incubated at 37° C. for 1 h. The plate was washed three times with wash buffer at 250 μL per well. The HRP-labeled anti-his-tagged secondary antibody (Genscrpit) diluted at 1:2000 was added at 100 μL per well. The plate was incubated at 37° C. for 1 h. The plate was washed three times with wash buffer at 250 μL per well. TMB was added at 100 μL/well, and the plate was incubated in the dark for 15 min. 0.16 M sulfuric acid was added at 50 μL/well. OD values at 450 nm were measured using a Thermo MμtLtiSkanFc microplate reader, and the IC₅₀ values of the anti-PVRIG antibodies blocking the binding of PVRIG to PVRL2 were calculated.
(§2) Binding of the humanized anti-PVRIG/TIGIT bispecific antibodies to human and cynomolgus monkey PVRIG and their blocking of the ligand of human PVRIG were detected according to the methods of Examples 4, 5 and 6.
A general note: An ELISA detects its analyte on a solid surface through an enzyme-linked reagent.

Assay [2] deals with T2, human PVRIG expressed on cells (human, UniProt Q6DKI7 41-326).
T2 construct: whole, on cells; also called Human PVRIG FACS; cells overexpressing human PVRIG
T2 sequence (looked up): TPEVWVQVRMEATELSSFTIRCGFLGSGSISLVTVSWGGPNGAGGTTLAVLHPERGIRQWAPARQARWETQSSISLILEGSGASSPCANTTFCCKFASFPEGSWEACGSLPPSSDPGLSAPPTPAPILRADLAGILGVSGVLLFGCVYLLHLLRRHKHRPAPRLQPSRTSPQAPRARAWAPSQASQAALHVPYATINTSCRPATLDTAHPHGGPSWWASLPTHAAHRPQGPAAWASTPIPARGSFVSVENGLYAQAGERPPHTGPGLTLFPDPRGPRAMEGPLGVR
Kind of assay: FACS, cells overexpressing target. On the procedure: (§3) The expression plasmid carrying human or cynomolgus monkey PVRIG gene sequence was transfected into HEK293 cells, and the over-expressing stable transfection monoclonal cell strain was obtained by antibiotic screening and infinite dilution. Overexpressing cells were seeded into a 96-well plate at 2×10⁵ cells/per well. The cells were centrifuged at 300 g for 5 min, the supernatant was then removed, 100 μL of the test antibody was added, and the mixture was incubated at 4° C. for 1 h. The mixture was centrifuged, the supernatant was removed, the plate was washed 3 times with 200 μL of wash buffer (PBS+2% FBS), and then 100 μL of an anti-human IgG secondary antibody (Invitrogen, A-11013) labeled with Alexa Fluor 488 diluted at 1:500 was added. The mixture was incubated at 4° C. for 1 h. The plate was centrifuged, and the supernatant was removed. The plate was washed 3 times with 200 μL of wash buffer (PBS+2% FBS). The cells were resuspended in 100 μL of PBS and tested on a flow cytometer (BD FACS Calibur or BD FACS Canto_II).
as §2

Assay [3] deals with T3, cynomolgus monkey PVRIG expressed on cells (cynomolgus monkey, UniProt A0A2K5WVV8 1-322).
T3 construct: whole, on cells; also called Monkey PVRIG FACS; cells overexpressing cynomolgus monkey PVRIG
T3 sequence: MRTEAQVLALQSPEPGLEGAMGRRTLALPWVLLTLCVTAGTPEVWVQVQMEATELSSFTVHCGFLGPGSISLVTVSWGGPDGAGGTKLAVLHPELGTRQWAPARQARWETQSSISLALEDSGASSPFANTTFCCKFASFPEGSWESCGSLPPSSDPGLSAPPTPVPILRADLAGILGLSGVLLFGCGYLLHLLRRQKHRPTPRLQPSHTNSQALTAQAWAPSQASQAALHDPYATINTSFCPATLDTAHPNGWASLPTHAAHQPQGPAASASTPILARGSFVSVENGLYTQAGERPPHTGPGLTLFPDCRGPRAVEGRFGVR
In words: FACS, cells overexpressing target. On the procedure:
as §3, §2
(In general: A flow cytometer gives signals particle by particle.)

In assay [4] the target is T4, his-tagged human PVRIG (h-PVRIG-his) recombinant protein (human, UniProt Q6DKI7 41-171, limits assumed).
T4 construct: bought from Acrobiosystems; also called Human PVRIG-his; human PVRIG recombinant protein; not shown: his tag
T4 sequence (looked up): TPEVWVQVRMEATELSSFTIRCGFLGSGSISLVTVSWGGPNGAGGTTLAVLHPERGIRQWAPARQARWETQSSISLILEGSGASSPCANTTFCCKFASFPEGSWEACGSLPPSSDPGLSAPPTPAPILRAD
Kind of assay: ELISA, coated antigen. On the procedure:
(§4) A human, cynomolgus monkey, or mouse PVRIG protein (at a concentration of 1 μg/mL) was coated on a 96-well microplate at 100 μL per well, and incubated overnight at 4° C. The plate was washed three times with wash buffer at 250 μL per well. For each wash, the plate was shaken for 10 s to ensure adequate cleaning. A blocking solution (PBS+0.05% Tween20+1% BSA) was added at 300 μL/well, and the plate was incubated at room temperature for 1 h. The plate was washed three times with wash buffer at 250 μL per well. For each wash, the plate was shaken for 10 s to ensure adequate cleaning. Dilutions of the test anti-PVRIG antibodies were added at 100 μL/well. The plate was incubated at 37° C. for 1 h. The plate was washed three times with wash buffer at 250 μL per well. The […] anti-human IgG secondary antibody (Sigma, A8667) was added at 100 μL per well. The plate was incubated at 37° C. for 1 h. The plate was washed three times with wash buffer at 250 μL per well. TMB was added at 100 μL/well, and the plate was incubated in the dark for 15 min. 0.16 M sulfuric acid was added at 50 μL/well. The OD values at 450 nm were read by using a Thermo MultiSkanFc microplate reader, and the EC₅₀ values of the binding of the anti-PVRIG antibodies to PVRIG were calculated.
as §2

The target of assay [5] is T5, his-tagged cynomolgus monkey PVRIG (cyno-PVRIG-his) recombinant protein (cynomolgus monkey).
T5 construct: expressed in HEK293, purified by Ni-NTA; also called Monkey PVRIG-his; cynomolgus monkey PVRIG recombinant protein
T5 chain: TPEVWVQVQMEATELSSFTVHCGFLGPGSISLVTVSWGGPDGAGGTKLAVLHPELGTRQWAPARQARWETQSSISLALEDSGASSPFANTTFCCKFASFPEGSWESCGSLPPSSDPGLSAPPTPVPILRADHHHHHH
Kind of assay: ELISA, coated antigen. As to the method: as §4, §2

For assay [6], the target named is T6, human PVRIG antigen (AcroBiosystem, PVG-H52H4) (human, UniProt Q6DKI7 41-171, limits assumed).
T6 sequence (looked up): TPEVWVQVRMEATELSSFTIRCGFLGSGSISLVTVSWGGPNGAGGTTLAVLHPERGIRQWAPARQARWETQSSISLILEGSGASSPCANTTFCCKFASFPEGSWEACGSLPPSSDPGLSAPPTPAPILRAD
In words: SPR (Biacore X100), antibody captured on Protein A chip, 1:1 fit. An excerpt:
The affinity of the humanized bispecific antibodies for human PVRIG, cynomolgus monkey PVRIG and human TIGIT was detected using Biacore. Humanized bispecific antibodies were each captured on a Protein A biosensor chip (GE lifesciences, 29127557) of a Biacore instrument (Biacore X100, GE), and then human PVRIG antigen (AcroBiosystem, PVG-H52H4), cynomolgus monkey PVRIG antigen (SEQ ID NO: 1), or human TIGIT antigen (AcroBiosystem, TIT-H52H3) at a series of concentration gradients each flowed over the chip surface. The reaction signals were detected in real time using a Biacore instrument (Biacore X100, GE) to obtain association and dissociation curves. The data obtained from the experiment were fitted using the (1:1) Binding model with the BiacoreX100 evaluation software 2.0 GE to obtain affinity values (see Table 31).
On the technique in general: Surface plasmon resonance follows binding to a sensor surface in real time, without labels.

Assay [7] addresses cynomolgus monkey TIGIT recombinant protein (cynomolgus monkey, UniProt A0A7N9I9V4 89-209). Kind of assay: ELISA, coated antigen. As to the method: as §4
(§5) Similarly to Examples 4, 5 and 6, the binding of humanized anti-PVRIG/TIGIT bispecific antibodies to human and cynomolgus monkey TIGIT and blocking of binding of human TIGIT to ligand were detected, where PVRIG protein was replaced with TIGIT and PVRL2 was replaced with PVR.

The target of assay [8] is T7, cynomolgus monkey TIGIT expressed on cells (cynomolgus monkey, UniProt A0A7N9I9V4 89-312).
T7 construct: whole, on cells; also called cells overexpressing cynomolgus monkey TIGIT
Kind of assay: FACS, cells overexpressing target. On the procedure:
as §3, §5

Assay [9] deals with T8, human TIGIT expressed on cells (human, UniProt Q495A1 22-244).
T8 construct: whole, on cells; also called cells overexpressing human TIGIT
T8 sequence (looked up): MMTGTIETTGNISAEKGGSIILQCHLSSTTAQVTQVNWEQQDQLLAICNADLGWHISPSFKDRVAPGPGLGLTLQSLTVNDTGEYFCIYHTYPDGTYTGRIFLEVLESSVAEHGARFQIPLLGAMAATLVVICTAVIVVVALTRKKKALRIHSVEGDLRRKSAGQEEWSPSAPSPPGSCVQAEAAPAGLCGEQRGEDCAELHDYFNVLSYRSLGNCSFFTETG
In words: FACS, cells overexpressing target. As to the method:
as §3
(§6) The experiments were carried out according to the methods of Example 4, Example 5 and Example 6 (corresponding receptors and ligands were replaced with human TIGIT and human PVR), and the results are shown in Table 27.

Assay [10] concerns the target T9, human TIGIT recombinant protein (human, UniProt Q495A1 22-141, limits assumed).
T9 construct: construct not described; also called human TIGT recombinant protein
T9 sequence (looked up): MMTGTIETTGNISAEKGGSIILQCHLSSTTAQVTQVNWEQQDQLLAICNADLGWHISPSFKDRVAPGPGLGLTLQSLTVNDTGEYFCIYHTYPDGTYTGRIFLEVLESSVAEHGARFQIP
Kind of assay: competition ELISA; human TIGIT, competitor human PVR. As to the method:
as §1, §5

Assay [11] has as its target T9, human TIGIT recombinant protein. The assay is described as above. As to the method: as §1, §6
This is another data set of the same source.

For assay [12] the target is unchanged. Kind of assay: ELISA, coated antigen. On the procedure:
as §4, §5

Assay [13] addresses T8, human TIGIT expressed on cells. In words: FACS, cells overexpressing target. On the procedure: as §3, §5
The source holds these as a separate data set.

Assay [14] addresses T9, human TIGIT recombinant protein. Kind of assay: ELISA, coated antigen. On the procedure: as §4, §6
This is another data set of the same source.

Read-outs that look alike come from different tables or passages of the source.

T7 sequence (A0A7N9I9V4 entry or part of it): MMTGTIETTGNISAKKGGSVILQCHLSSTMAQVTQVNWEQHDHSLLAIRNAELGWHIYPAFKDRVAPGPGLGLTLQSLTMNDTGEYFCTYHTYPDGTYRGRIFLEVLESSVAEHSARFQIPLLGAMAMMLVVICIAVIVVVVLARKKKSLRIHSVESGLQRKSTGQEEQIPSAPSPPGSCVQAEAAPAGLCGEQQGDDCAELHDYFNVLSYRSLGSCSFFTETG
Chain of cynomolgus monkey TIGIT recombinant protein (A0A7N9I9V4 entry or part of it): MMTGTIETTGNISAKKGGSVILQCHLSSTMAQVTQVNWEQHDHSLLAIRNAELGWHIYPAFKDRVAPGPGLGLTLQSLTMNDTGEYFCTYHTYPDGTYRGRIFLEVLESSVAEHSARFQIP

B1: humanized anti-PVRIG/TIGIT bispecific antibody 1708-151H7 (bispecific antibody, human IgG4 S228P, kappa)
heavy: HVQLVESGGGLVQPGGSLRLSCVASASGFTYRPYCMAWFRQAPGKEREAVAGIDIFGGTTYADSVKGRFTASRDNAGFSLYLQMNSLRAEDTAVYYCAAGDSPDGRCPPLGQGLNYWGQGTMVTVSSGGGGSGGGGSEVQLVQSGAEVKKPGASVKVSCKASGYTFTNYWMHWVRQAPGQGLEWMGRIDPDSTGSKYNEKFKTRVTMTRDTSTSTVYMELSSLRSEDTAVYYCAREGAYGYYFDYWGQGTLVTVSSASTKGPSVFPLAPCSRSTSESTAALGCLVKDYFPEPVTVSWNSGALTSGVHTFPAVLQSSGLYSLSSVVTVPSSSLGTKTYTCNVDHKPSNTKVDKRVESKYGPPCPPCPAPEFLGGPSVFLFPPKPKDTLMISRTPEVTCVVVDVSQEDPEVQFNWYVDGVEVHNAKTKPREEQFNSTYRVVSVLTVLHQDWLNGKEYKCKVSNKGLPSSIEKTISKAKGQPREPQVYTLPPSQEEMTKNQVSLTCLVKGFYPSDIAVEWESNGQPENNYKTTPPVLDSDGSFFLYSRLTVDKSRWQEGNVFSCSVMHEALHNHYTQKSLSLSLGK
light: DIQMTQSPSSLSASVGDRVTITCRASENIYSYLAWYQQKPGKSPKLLIYNARTLAEGVPSRFSGSGSGTDFTLTISSLQPEDFATYYCQYHSGSPLPFGGGTKVEIKRTVAAPSVFIFPPSDEQLKSGTASVVCLLNNFYPREAKVQWKVDNALQSGNSQESVTEQDSKDSTYSLSSTLTLSKADYEKHKVYACEVTHQGLSSPVTKSFNRGEC
One may read the IC50 as the midpoint of a concentration-inhibition curve. What is called EC50 is the midpoint of the concentration-response curve. For orientation: Kd means the constant that tells how readily two partners part at equilibrium. A word on the koff: it is the first-order rate constant of dissociation. As a reminder, the kon is the second-order rate constant of association. On to B1, for which the IC50 in assay [1] was determined as 0.598 nM. The concentration for a half-maximal effect (EC50) came to 0.043 nM in assay [2]; 11.5 nM in assay [3]; 0.679 nM in assay [4]; 9.44 nM in assay [5]; 0.119 nM in assay [7]; 0.012 nM in [8]. The Kd in assay [6] came to 0.125 nM. For the same molecule, in [6], the off-rate constant (koff) turned out to be 0.000757 s⁻¹. In addition, the association rate constant (kon) in assay [6] was found to be 6.06e+06 M⁻¹ s⁻¹.

B2: anti-TIGIT antibody 1708 (antibody, human IgG4 S228P, kappa, V domains shown)
VH: EVQLVQSGAEVKKPGASVKVSCKASGYTFTNYWMHWVRQAPGQGLEWMGRIDPDSTGSKYNEKFKTRVTMTRDTSTSTVYMELSSLRSEDTAVYYCAREGAYGYYFDYWGQGTLVTVSS
VL: DIQMTQSPSSLSASVGDRVTITCRASENIYSYLAWYQQKPGKSPKLLIYNARTLAEGVPSRFSGSGSGTDFTLTISSLQPEDFATYYCQYHSGSPLPFGGGTKVEIKR
notes: human IgG4 subtype with S228P; kappa light chain
For B2, the EC50 in assay [9] worked out at 0.74 nM; in assay [12] it was 0.133 nM; in assay [7], 0.104 nM; in assay [8], 0.003 nM; in assay [13], 0.0027 nM; in assay [14], 0.055 nM. Also, the binding result in assay [3] and in assay [5] was “no binding” in each case. Also, the half-maximal inhibitory concentration (IC50) in [10] amounted to 0.779 nM; in assay [11], 0.87 nM.

The record behind these values is US20240376207A1 (JIANGSU HENGRUI PHARMACEUTICALS, published 2024).
